Laboratory results taken from patent US20180256687A1.
Read-outs that look alike come from different tables or passages of the source. Each block holds one substance with its values, some of them ahead of it.

Experiments:
[1] = target: JAK2 (Janus protein-tyrosine kinase 2) (human) (UniProt O60674)
[2] = target: JAK2 (Janus protein-tyrosine kinase 2) (human) (UniProt O60674); assay: negative-control pull-down on nickel gel; lysate of resting human monocytes; mean of 3 experiments
[3] = target: PTP Receptor type C (PTPRC or CD45) (human) (UniProt P08575); assay: cell-based or functional assay
[4] = target: Protein tyrosine phosphatase receptor type gamma (PTPRG) (human) (UniProt P23470); assay: cell-based or functional assay

PTP Receptor type C (PTPRC or CD45) (human), sequence (P08575 26-1306 limits assumed): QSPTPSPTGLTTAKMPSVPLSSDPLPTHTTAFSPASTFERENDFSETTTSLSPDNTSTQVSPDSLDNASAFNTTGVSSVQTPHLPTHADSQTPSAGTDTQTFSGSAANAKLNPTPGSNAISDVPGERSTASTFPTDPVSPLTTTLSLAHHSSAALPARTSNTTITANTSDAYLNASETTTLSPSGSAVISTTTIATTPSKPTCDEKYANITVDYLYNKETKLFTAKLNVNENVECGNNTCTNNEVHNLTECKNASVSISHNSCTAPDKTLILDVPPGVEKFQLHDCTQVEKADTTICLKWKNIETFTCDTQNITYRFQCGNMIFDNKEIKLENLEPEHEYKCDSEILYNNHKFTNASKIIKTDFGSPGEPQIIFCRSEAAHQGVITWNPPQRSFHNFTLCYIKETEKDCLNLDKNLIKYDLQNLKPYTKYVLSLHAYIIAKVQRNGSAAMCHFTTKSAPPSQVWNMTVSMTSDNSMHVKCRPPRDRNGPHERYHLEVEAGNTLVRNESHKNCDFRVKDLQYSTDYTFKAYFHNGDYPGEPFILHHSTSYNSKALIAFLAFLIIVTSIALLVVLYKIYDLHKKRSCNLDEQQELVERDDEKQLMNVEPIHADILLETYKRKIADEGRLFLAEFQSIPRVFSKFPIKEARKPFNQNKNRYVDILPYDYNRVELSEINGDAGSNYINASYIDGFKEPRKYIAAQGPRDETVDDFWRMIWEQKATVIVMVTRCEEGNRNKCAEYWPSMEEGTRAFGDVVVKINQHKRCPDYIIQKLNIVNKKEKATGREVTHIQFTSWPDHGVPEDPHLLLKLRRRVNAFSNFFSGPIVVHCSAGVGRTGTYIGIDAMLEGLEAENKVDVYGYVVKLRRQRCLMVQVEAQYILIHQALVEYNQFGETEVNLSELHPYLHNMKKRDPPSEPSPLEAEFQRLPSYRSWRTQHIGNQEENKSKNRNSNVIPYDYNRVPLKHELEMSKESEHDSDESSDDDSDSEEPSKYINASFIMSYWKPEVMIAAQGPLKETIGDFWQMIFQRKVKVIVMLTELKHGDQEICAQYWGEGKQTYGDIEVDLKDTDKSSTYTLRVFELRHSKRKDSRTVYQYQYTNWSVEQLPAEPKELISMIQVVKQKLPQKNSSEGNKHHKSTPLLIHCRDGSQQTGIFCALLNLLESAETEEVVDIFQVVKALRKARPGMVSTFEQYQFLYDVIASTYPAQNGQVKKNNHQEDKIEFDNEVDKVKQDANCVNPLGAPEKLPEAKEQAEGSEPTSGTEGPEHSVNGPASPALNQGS

Substance: TAT-eGFP
JAK2 band (anti-JAK2 Western blot of pull-down), mean [1]: 1.5 | JAK2 band (anti-JAK2 Western blot of pull-down), mean [2]: 4.4

phosphatase activity (pNPP, absorbance at 405 nm, percent fold increase over the blank) in PMN membrane fractions, P1-WD 50 micromolar (percent fold increase over the blank) [3]: 5.15 | phosphatase activity (pNPP, absorbance at 405 nm, percent fold increase over the blank) in PMN membrane fractions, P1-WD 100 micromolar (percent fold increase over the blank) [3]: 8.54 | phosphatase activity (pNPP, absorbance at 405 nm, percent fold increase over the blank) in PMN membrane fractions, P1-WD 200 micromolar (percent fold increase over the blank) [3]: 12.9 | phosphatase activity (pNPP, absorbance at 405 nm, percent fold increase over the blank) in monocyte membrane fractions, P1-WD 50 micromolar (percent fold increase over the blank) [4]: 34.6 | phosphatase activity (pNPP, absorbance at 405 nm, percent fold increase over the blank) in monocyte membrane fractions, P1-WD 100 micromolar (percent fold increase over the blank) [4]: 86.7 | phosphatase activity (pNPP, absorbance at 405 nm, percent fold increase over the blank) in monocyte membrane fractions, P1-WD 200 micromolar (percent fold increase over the blank) [4]: 109
Substance: P1-WD Trojan peptide (Penetratin fused to the PTPRG wedge domain)

phosphatase activity (pNPP, absorbance at 405 nm, percent fold increase over the blank) in monocyte membrane fractions, P1 control (percent fold increase over the blank) [4]: 16
Substance: P1 (Penetratin 1) control peptide
